Data set [1] is described as follows: Determination of specific activity of purified TaALDH variants. In kind it is biochemical. The conditions noted are these: purified enzyme, 1 mM D-Glyceraldehyde, 50° C., pH 7. The source says: The Ta-aldh gene was cloned in pCBR-Chis expression vector as described above. Mutations F34L, F34M, Y399C, S405C and S405N were inserted into Ta-aldh gene by Quickchange PCR as described above. For recombinant expression, E. coli BL21 (DE3) was transformed with pCBR-Ta-aldh-Chis, pCBR-Ta-aldh-f34I-s405c-Chis, pCBR-Ta-aldh-f34m-s405n-Chis or pCBR-Ta-aldh-f34m-y399c-s405n-Chis. Each of the four variants was produced using the following protocol:
Large amounts of a TaALDH-Variant were produced with fed-batch fermentation in a 40 L Biostat Cplus bioreactor (Sartorius Stedim, Goettingen, Germany). Defined media was supplemented with 30 μg/ml kanamycin. After inoculation cells were grown at 30° C. for 24 h and induced with 0.3 mM IPTG. Enzyme expression was performed at 30° C. for 3 h. One fermentation produced 300 g cells (wet weight). Cells were harvested and lysed with Basic-Z Cell Disruptor (Constant Systems, Northants, UK) in loading buffer (200 mM NaCl; 20 mM Imidazol; 2.5 mM MgCl2; 50 mM NaPi, pH 6.2). After heat treatment at 50° C. for 30 min, cell debris and protein aggregates were separated from soluble fraction by centrifugation at 30,000 g at 20° C. for 30 min (Sorvall RC6+, SS-34 rotor, Thermo Scientific).
Soluble fraction of His-tagged TaALDH-Variant was further purified by Ni-NTA chromatography using ÄKTA UPC-900 FPLC-system (GE Healthcare, Freiburg, Germany). Supernatant was loaded on HiTrap FF-column and washed with two column volumes of loading buffer. Highly purified and concentrated TaALDH was fractioned after elution in imidazole buffer (200 mM NaCl; 500 mM imidazol; 50 mM NaPi, pH 6.2). Buffer was changed to 20 mM (NH4)HCO3 with HiPrep 26/10 Desalting column and TaALDH was lyophilized with an Alpha 2-4 LD Plus freeze dryer (Martin Christ GmbH, Osterode am Harz, Germany).
TaALDH activity was determined spectrophotometrically at 50° C. by measuring the rate of cofactor reduction at 340 nm in flat bottom microtiter plates (Grainer BioOne) with a Fluorostar Omega Photometer (BMG Labtech GmbH, Ortenberg, Germany). One unit of activity was defined as reduction of 1 μmol of cofactor per minute.

A short description of data set [2]: Screening of TaALDH variants, relative activity under standard conditions (2 mM NAD). The conditions noted are these: for 2 mM NAD (mU/mL): 1 mM D-glyceraldehyde, 50° C., pH 7, lysate supernatant; for relative to wt: mU/mL values normalized to the wildtype control value. The format is biochemical. How it is done:
(§1) Colonies of E. coli BL21 (DE3) containing Ta-ALDH library were transferred into 96-deepwell plates (Gainer BioOne) containing Zym5052 autoinduction medium (Protein Expression and Purification, 2005. 41(1): p. 207-234). Cultures were grown over night at 37° C., 1000 rpm. Cells were harvested by centrifugation at 5000 g at 2° C. for 2 min and lysed with B-Per® protein extraction reagent (Thermo Fisher Scentific, Rockford, USA). After incubation for 60 min at 50° C., insoluble cell debris and was removed by centrifugation at 5000 g at 20° C. for 30 min. Supernatants containing variants of TaALDH were tested for relative activity under standard conditions: 2 mM NAD, 1 mM D-glyceraldehyde in 50 mM HEPES (pH 7) at 50° C. After 20 min NADH formation was detected spectrophotometrically at 340 nm.
(§2) The values “relative to wt” are the mU/mL values normalized to the wildtype control value.

A short description of data set [3]: Cofactor acceptance of Ta-ALDH variants (10 mM NAD). In kind it is biochemical. The conditions noted are these: for 10 mM NAD (mU/mL): 1 mM D-glyceraldehyde, 50° C., pH 7; for 10 mM NAD (mU/mL) / relative to wt: 10 mM NAD; for relative to wt: normalized to the wildtype control value; for 10 mM NAD /2 mM NAD: ratio of activity at 10 mM NAD to 2 mM NAD. The protocol: as §1
Change in cofactor acceptance of Ta-ALDH variants was tested under standard assay conditions but with 10 mM NAD. After 20 min NADH formation was detected and compared to relative activity.
as §2

Data set [4] can be described thus: Activity in solvents of Ta-ALDH variants (3 % isobutanol). The format is biochemical. To be noted: for 3 % isobutanol, 2 mM NAD (mU/mL): 50° C., pH 7; for 3 % isobutanol, 2 mM NAD (mU/mL) / relative to wt: 3 % isobutanol, 2 mM NAD; for relative to wt: normalized to the wildtype control value; for Stab. rel to wt: stability in 3 % isobutanol relative to wildtype. The protocol:
as §1
Activity in solvents of Ta-ALDH variants was tested under standard assay conditions containing additional solvent. After 20 min NADH formation was detected and compared to relative activity.
as §2

A short description of data set [5]: KDGA activity in cleavage direction (HPLC). In kind it is biochemical. To be noted: natural substrate. The protocol: (J. Mol. Catal. B-Enzym. 2009, 61, 30-35).
KDGA activity: KDGA activity was followed in cleavage direction at 50° C. Reaction mixture contained 50 mM HEPES (pH 7), 0.1 mM thiamine pyrophosphate, 2.5 mM MgCl2, 20 U PDC and 10 mM KDG. KDG cleavage was followed by HPLC as described below.
Sample volume was 10 μl in each case.

A short description of data set [6]: Ethanol tolerance of enzymes (E50). In kind it is biochemical. To be noted: 60° C.
Data set [7] is described as follows: Isobutanol tolerance of enzymes (I50). In kind it is biochemical.
The conditions of data set [8]: cited from earlier work.
A short description of data set [9]: Enzyme half-life at 50° C.

Read-outs that look alike come from different tables or passages of the source. Marks after values point to notes of the source that are not given here. Bounds are passed on as bounds.

B1: F34L S405C: optimized Thermoplasma acidophilum aldehyde dehydrogenase with the mutations F34L and S405C (protein)
chain: MDTKLYIDGQWVNSSSGKTVDKYSPVTGQVIGRLEAATRDDVDRAIDAAEDAFWAWNDLGSVERSKIIYRAKELIEKNRAELENIIMEENGKPVKEAKEEVDGVIDQIQYYAEWARKLNGEVVEGTSSHRKIFQYKVPYGIVVALTPWNFPAGMVARKLAPALLTGNTVVLKPSSDTPGSAEWIVRKFVEAGVPKGVLNFITGRGSEIGDYIVEHKKVNLITMTGSTATGQRIMQKASANMAKLILELGGKAPFMVWKDADMDNALKTLLWAKYWNAGQSCIAAERLYVHEDIYDTFMSRFVELSRKLALGDPKNADMGPLINKGALQATSEIVEEAKESGAKILFGGSQPSLSGPYRNGYFFLPTIIGNADQKSKIFQEEIFAPVIGARKISSVEEMYDLANDCKYGLASYLFTKDPNIIFEASERIRFGELYVNMPGPEASQGYHTGFRMTGQAGEGSKYGISEYLKLKNIYVDYSGKPLHINTVRDDLFQSGRPVLGSSHHHHHH
modifications: TaALDH-F34L-S405C-Chis
B1: the “specific activity (U/mg) at 2 mM NAD” value in data set [1] is given as 1 U/mg. Moreover, in data set [2], the “2 mM NAD (mU/mL)” value is recorded as 15.23 mU/mL and the relative to wt was determined as 5.3. In data set [3], the “10 mM NAD (mU/mL)” value is 46.83 mU/mL, the relative to wt is recorded as 3.9 and the 10 mM NAD /2 mM NAD worked out at 0.7. For the same molecule, in data set [4], the “3 % isobutanol, 2 mM NAD (mU/mL)” value was 8.17 mU/mL; the relative to wt is recorded as 5.1; the “Stab. rel to wt” value is 1.0.

B2: wildtype (wt): Aldehyde Dehydrogenase ALDH (EC 1.2.1.3), Thermoplasma acidophilum, Seq ID 08, wildtype, non-optimized enzyme (protein)
chain: MDTKLYIDGQWVNSSSGKTVDKYSPVTGQVIGRFEAATRDDVDRAIDAAEDAFWAWNDLGSVERSKIIYRAKELIEKNRAELENIIMEENGKPVKEAKEEVDGVIDQIQYYAEWARKLNGEVVEGTSSHRKIFQYKVPYGIVVALTPWNFPAGMVARKLAPALLTGNTVVLKPSSDTPGSAEWIVRKFVEAGVPKGVLNFITGRGSEIGDYIVEHKKVNLITMTGSTATGQRIMQKASANMAKLILELGGKAPFMVWKDADMDNALKTLLWAKYWNAGQSCIAAERLYVHEDIYDTFMSRFVELSRKLALGDPKNADMGPLINKGALQATSEIVEEAKESGAKILFGGSQPSLSGPYRNGYFFLPTIIGNADQKSKIFQEEIFAPVIGARKISSVEEMYDLANDSKYGLASYLFTKDPNIIFEASERIRFGELYVNMPGPEASQGYHTGFRMTGQAGEGSKYGISEYLKLKNIYVDYSGKPLHINTVRDDLFQSGRPVLGSSHHHHHH
modifications: Aldehyde Dehydrogenase (EC 1.2.1.3), Thermoplasma acidophilum, wildtype enzyme Protein sequence including C-terminal His-Tag
As to B2, in data set [1], the “specific activity (U/mg) at 2 mM NAD” value was 0.2 U/mg. In data set [2], the “2 mM NAD (mU/mL)” value is recorded as 2.89 mU/mL and the relative to wt turned out to be 1.0. Further, in data set [3], the “10 mM NAD (mU/mL)” value came to 11.92 mU/mL, the relative to wt is recorded as 1.0 and the 10 mM NAD /2 mM NAD stood at 1. In addition, in data set [4], the “3 % isobutanol, 2 mM NAD (mU/mL)” value is reported as 1.60 mU/mL; the relative to wt came out at 1.0; the “Stab. rel to wt” value amounted to 1.0.

B3: F34M S405N: optimized Thermoplasma acidophilum aldehyde dehydrogenase with the mutations F34M and S405N (protein)
chain: MDTKLYIDGQWVNSSSGKTVDKYSPVTGQVIGRMEAATRDDVDRAIDAAEDAFWAWNDLGSVERSKIIYRAKELIEKNRAELENIIMEENGKPVKEAKEEVDGVIDQIQYYAEWARKLNGEVVEGTSSHRKIFQYKVPYGIVVALTPWNFPAGMVARKLAPALLTGNTVVLKPSSDTPGSAEWIVRKFVEAGVPKGVLNFITGRGSEIGDYIVEHKKVNLITMTGSTATGQRIMQKASANMAKLILELGGKAPFMVWKDADMDNALKTLLWAKYWNAGQSCIAAERLYVHEDIYDTFMSRFVELSRKLALGDPKNADMGPLINKGALQATSEIVEEAKESGAKILFGGSQPSLSGPYRNGYFFLPTIIGNADQKSKIFQEEIFAPVIGARKISSVEEMYDLANDNKYGLASYLFTKDPNIIFEASERIRFGELYVNMPGPEASQGYHTGFRMTGQAGEGSKYGISEYLKLKNIYVDYSGKPLHINTVRDDLFQSGRPVLGSSHHHHHH
modifications: TaALDH-F34M-S405N-Chis
Turning to B3, the “specific activity (U/mg) at 2 mM NAD” value in data set [1] is on record as 1.2 U/mg. Moreover, in data set [2], the “2 mM NAD (mU/mL)” value is on record as 25.87 mU/mL and the relative to wt amounted to 9.0. In [3], the “10 mM NAD (mU/mL)” value was found to be 74.31 mU/mL, the relative to wt is recorded as 6.2 and the 10 mM NAD /2 mM NAD is 0.7. In data set [4], the “3 % isobutanol, 2 mM NAD (mU/mL)” value is reported as 15.62 mU/mL; the relative to wt is 9.8; the “Stab. rel to wt” value is listed as 1.1.

B4: KDGA: 2-Keto-3-deoxygluconate aldolase KDGA (EC 4.1.2.14), Sulfolobus acidocaldaricus, Seq ID 06 (protein, listed as Sulfolobus acidocaldarius)
chain: MEIISPIITPFDKQGKVNVDALKTHAKNLLEKGIDAIFVNGTTGLGPALSKDEKRQNLNALYDVTHKLIFQVGSLNLNDVMELVKFSNEMDILGVSSHSPYYFPRLPEKFLAKYYEEIARISSHSLYIYNYPAATGYDIPPSILKSLPVKGIKDTNQDLAHSLEYKLNLPGVKVYNGSNTLIYYSLLSLDGVVASFTNFIPEVIVKQRDLIKQGKLDDALRLQELINRLADILRKYGSISAIYVLVNEFQGYDVGYPRPPIFPLTDEEALSLKREIEPLKRKIQELVH
Regarding B4, the “Activity, 50° C.” value in data set [5] was 4 U/mg. Further, in data set [6], the “E50: Ethanol concentration which causes loss of 50% activity” value was 15 (60° C.) % v/v. Moreover, the “I50: Isobutanol concentration which causes loss of 50% activity” value in data set [7] (60° C., above solubility) is on record as >12 (60° C.)^b % v/v. Besides, the “activity in a two-phase isobutanol/water system” value in data set [7] (two-phase system forms at product titers above 12% (v/v)) is recorded as “remains completely active”. In addition, the T-Optimum in data set [8] (Table 1, value with literature reference) was 99^[1] 50 °C; in [8] (Table 2, value with literature reference), 99^[1] ° C. The “Half-life, 50° C.” value in [9] is on record as more than 24 h.

(Values after patent US20150218594A1, “CELL-FREE AND MINIMIZED METABOLIC REACTION CASCADES FOR THE PRODUCTION OF CHEMICALS” (CLARIANT PRODUKTE (DEUTSCHLAND) GMBH, priority 2012, published 2015).)
